# Results taken from patent US20170037110A1 (IMMATICS BIOTECHNOLOGIES, published 2017).
# Key:
# HLA-A*02:01 [1] = biological target: T1, HLA-A*02:01 (human); experiment: pMHC complex coated on artificial APCs and used as fluorescent multimer A*02/SeqID No 662
# T1 construct: Construct limits and biotin tag are not described
# HLA-A*02:01 [2] = biological target: T2, HLA-A*02:01 (human); experiment: UV peptide exchange ELISA
# T2 construct: monomers captured on streptavidin plates; also called MHC class I
# Method in brief: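 Peptide-MHC complexes formed by UV-triggered exchange of a cleavable peptide for the test peptide, with stabilised complexes indicating binding. Exchange products diluted 100 fold onto streptavidin-coated wells, 1h at 37° C.; HRP anti-β2m (2 μg/ml), TMB, absorbance at 450 nm gives exchange yield.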
# HLA-A*02:01 [3] = biological target: T1, HLA-A*02:01; experiment: pMHC complex coated on artificial APCs and used as fluorescent multimer A*02/SeqID No 663
# HLA-A*02:01 [4] = biological target: T1, HLA-A*02:01; experiment: pMHC used for negative control stimulations, biotin-pMHC on streptavidin beads
binder,measurement,setting,value
KIQEILTQV (also called IGF2BP3 peptide) [SeqID No 662 peptide (KIQEILTQV)],binding result,HLA-A*02:01 [1],binds
TLLQIIETV,peptide exchange yield,HLA-A*02:01 [2],50 to 75%
KIQEMQHFL (also called MMP12 peptide) [SeqID No 663 peptide (KIQEMQHFL)],binding result,HLA-A*02:01 [3],binds
YLIPFTGIVGL,peptide exchange yield,HLA-A*02:01 [2],20 to 50%
YLLPAIVHI (Peptide of the negative control pMHC for the T-cell stimulations; also called 665) [DDX5-001 (YLLPAIVHI from DDX5)],binding result,HLA-A*02:01 [4],binds
IMQDFPAEIFL,peptide exchange yield,HLA-A*02:01 [2],≥ 75%
YILPTETIYV,peptide exchange yield,HLA-A*02:01 [2],≥ 75%
